The data set deals with Escherichia coli TOP10. Description: shrunken log2 fold change of peptide-encoding DNA abundance (4.5 h post-induction vs induction); higher = less antimicrobial activity (less host growth inhibition). To be noted: time post-induction: 4.5 h; library: site-saturation at positions 5, 18, 19, 20.

The values that follow come from the supplement of paper PMC9112550, “Optimization of the antimicrobial peptide Bac7 by deep mutational scanning” (BMC Biology, 2022).
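Also: peptides expressed intracellularly from a pBAD plasmid library in pooled LB shake-flask culture, induced with 0.3% L-arabinose, DNA abundance read by NGS, three biological replicates, DESeq2 with apeglm shrinkage.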

With RRIRVRPPRLPRPRPRPQIEPRP, the “shrunken log2 fold change” value was -0.0116. The figure for RRIRSRPPRLPRPRPRPRFFPRP is 0.108; for RRIRNRPPRLPRPRPRPQKRPRP it is -0.034; for RRIRKRPPRLPRPRPRPHPSPRP it is 0.163.

In the case of RRIRTRPPRLPRPRPRPRQRPRP, the “shrunken log2 fold change” value was found to be 0.394.

On to RRIRWRPPRLPRPRPRPMTVPRP, for which the “shrunken log2 fold change” value is -0.0472. In the case of RRIRQRPPRLPRPRPRPGVGPRP it was 0.18; in that of RRIRNRPPRLPRPRPRPGARPRP, 0.582. The figure for RRIRWRPPRLPRPRPRPNHHPRP is -0.457; for RRIRYRPPRLPRPRPRPQQDPRP it is -0.0899; for RRIRIRPPRLPRPRPRPWRNPRP it is -0.0466. The figure for RRIRWRPPRLPRPRPRPVNDPRP is 0.118. Turning to RRIRVRPPRLPRPRPRPVNMPRP, the “shrunken log2 fold change” value was -0.418.

Take RRIRTRPPRLPRPRPRPQRMPRP: the “shrunken log2 fold change” value is -0.272. The figure for RRIRMRPPRLPRPRPRPVTCPRP is 0.0862; for RRIRIRPPRLPRPRPRPLHQPRP it is -0.121; for RRIRMRPPRLPRPRPRPDLTPRP it is 0.869. Regarding RRIRTRPPRLPRPRPRPTQIPRP, the “shrunken log2 fold change” value turned out to be 0.0112.

Turning to RRIRHRPPRLPRPRPRPNRPPRP, the “shrunken log2 fold change” value is -0.022.

Regarding RRIRVRPPRLPRPRPRPDMKPRP, the “shrunken log2 fold change” value is 0.0218.

Take RRIRVRPPRLPRPRPRPIPDPRP: the “shrunken log2 fold change” value was -0.0692. In the case of RRIRHRPPRLPRPRPRPVVRPRP it was 0.112; in that of RRIRERPPRLPRPRPRPSPCPRP, -0.229; in that of RRIRWRPPRLPRPRPRPCMVPRP, -0.155. The figure for RRIRMRPPRLPRPRPRPKYWPRP is 0.164; for RRIRDRPPRLPRPRPRPQQHPRP it is 0.0276; for RRIRYRPPRLPRPRPRPYGCPRP it is -0.143.

RRIRRRPPRLPRPRPRPPYDPRP: the “shrunken log2 fold change” value was 0.213. In the case of RRIRFRPPRLPRPRPRPHRWPRP it was -0.17; in that of RRIRTRPPRLPRPRPRPMLRPRP, 0.0141; in that of RRIRLRPPRLPRPRPRPKIVPRP, -0.142. For the sequence RRIRDRPPRLPRPRPRPAKSPRP, the “shrunken log2 fold change” value was -0.0126. In the case of RRIRTRPPRLPRPRPRPLQIPRP, the “shrunken log2 fold change” value is 4.62. In the case of RRIRQRPPRLPRPRPRPWFCPRP it was -0.282; in that of RRIRQRPPRLPRPRPRPKYIPRP, -1.11. In the case of RRIRSRPPRLPRPRPRPWPLPRP it was -0.293. The figure for RRIRMRPPRLPRPRPRPCFTPRP is -0.123; for RRIRARPPRLPRPRPRPVNWPRP it is 0.459; for RRIRNRPPRLPRPRPRPGERPRP it is -0.0647. Turning to RRIRSRPPRLPRPRPRPLKQPRP, the “shrunken log2 fold change” value was -0.0432.

Regarding RRIRVRPPRLPRPRPRPRPAPRP, the “shrunken log2 fold change” value amounted to 0.678. As for RRIRYRPPRLPRPRPRPGGGPRP, the “shrunken log2 fold change” value stood at 0.64.

Turning to RRIRRRPPRLPRPRPRPMPDPRP, the “shrunken log2 fold change” value was determined as 0.442.

Take RRIRFRPPRLPRPRPRPIYHPRP: the “shrunken log2 fold change” value is -0.701. RRIRYRPPRLPRPRPRPVEQPRP: the “shrunken log2 fold change” value was -0.191. In the case of RRIRMRPPRLPRPRPRPLRVPRP it was 1.14; in that of RRIRWRPPRLPRPRPRPYMWPRP, 0.00889. On to RRIRDRPPRLPRPRPRPQPHPRP, for which the “shrunken log2 fold change” value came to 0.228. Take RRIRYRPPRLPRPRPRPWNEPRP: the “shrunken log2 fold change” value was -0.0429.

For the sequence RRIRNRPPRLPRPRPRPHDYPRP, the “shrunken log2 fold change” value turned out to be 0.0503.
